Experimental data: the DeepSol protein solubility set

Test: soluble on expression in E. coli; label from the status in PepcDB or PDB records
In the case of “MGSDKIHHHHHHMEEANFYHALKIDNDRCIGCTHCMKECPTGAIRIRDGKALIHKDWCVDCGECLKSCPTEAIYVEQDDFQRIFDYKCRVALMPTVFIGQFSKYTTEKEIISAVMELGFTHVFQVEFTADMIHKEMVRQMENAEEKPVISSFCPAIVRLIQVRFPALVDNILLVKAPVNASATYYHKILEGQGVPSEEIGIFYVTPCAAKIAALKGAEGYSSTIKGVINMDTLYNKVYHILKNRPRGYEPECELPPPLTKKEMRWSQTGGEAKHFSGRCLAIDEIHNVIDFLERMETTSEVRNVDFLELRACDRSCAGGVLAVANRFLTAERIMKRSMNRDKVPMIYAADNFEALSYLRQHITIRPVQPNPKRLYDGTIDEMLKKMEQVRKLMCYLPGIDCGACGSPNCQSLAEDIVRHEAQFSDCVFMQRNMEKHGKLDQEHAFRIVEKTWGKDRLNKDCYKKGAKYEGL”, the “soluble on expression in E. coli” value is reported as “not soluble”. With “MGSDKIHHHHHHMEEKKALIIVDVQKAFDDKKWGERNNVKAEENISKILELWREKGWTVIYIQHTSDKPHSLFHPKNEGFAIKEIVKPMDEEVIITKTVNSSFIGTNLEEFLKLNEITTVVITGLTTPHCVSTTTRMSGNLGFDTYLISDATAAFGMRDQNDTYYDAATIHNISLATLHDEFATILTTDQLINDFIKTH” the “soluble on expression in E. coli” value was “not soluble”. With “MGSDKIHHHHHHMEELREAFEEGKPVILIDRNRENEADFVFPAQLITEDVVSFFVTYGKGLFCVTADEEDLLKRGFVKLSSNYGANYFVPVDWGTGTGISALERAETCRKLAEGRYFHEFRYPGHVTVIGGIGFQRRKGHTEASLEISELAGFSRHAVIVEILDEKGNSHNLDYVLKLSEKFSLPVLEMDDVWREFVKRKLLMKKKAEATLPTDFGVFKVVSFENHLDGKEHFAIVKEPLEDPVAVRIHSECVTGDVLSSLRCDCGSQLANFLRYMSAHGGILIYLRQEGRGIGLSNKIAAYSLQDKGLDTVEANRVLGFSEDERDYAPAAQILKALGIERVLLFTNNQRKTVGLEKYGIEVVETKRLYGRVTPHNRFYLSTKMKKLGHELEEIFREVNS” the “soluble on expression in E. coli” value was “not soluble”. With “MGSDKIHHHHHHMEETVQRIEPARLEDVAEPISDALAELSASSAVLGAKLHPRTAANLADLVRIMNTYYSNLIEGHNTRPRDIERALAGEFDKDQERRNLQVEAAAHVRLQGEIDRLAAEGQLPEPASLDFLRWLHAEFYRDADEAMLRIRGPDREFLMVPGRWRSQPEHDVTVGRHQPPSSDRVEAFMEHFASRYRFQRTGKAARILAIPAAHHRFNYIHPFPDGNGRVSRLMSHAMAHEAGIAAHGLWSISRGLARGLESRGDYKRMMDHADMPRQGDRDGRGNLSMRALADFTLWFLRVCIDQVSFMSSLFDLNQLARRLQRFVQRYDLKPEAFRLLEEALLRGEFDRGEASRIAGLPERTARRVFTEVLELGLLASDTPKGPVSLRFPVDTLDELFPKLFPET” the “soluble on expression in E. coli” value was “not soluble”. In the case of “MGSDKIHHHHHHMEGKALRQGSIAGKGAPRNTASLIQYAQDHFDAAHFQGLMAIYGRPLADRAVALTHDRGRRVVDFVRCSYLGLDNHPQIVAGAVEAMKEYGTLHWSCARTRLNFSILGDLEAALSELFDARVITYTTVLAANMGALPLIASGHLTGGVKPLMVFDRLAHATLAFHKGTIAAETRVETIAHNDLEALEMLCRTNGSVAFVCDGVYSMGGSADLARLRRLQERYGLFLYIDDAHGVSIFGKHGEGFARSQMSGPLGERTIVAASLGKGFGASGGLIMLGTARQEELFRRFAVAHAFSASLNVAAIGAARASQQLHLTEELTELQQRLRSRTALFDSLVPTEQQGSPLPIRTVEIGDEMTAIGAARALLDRGFYTSAIFFPTVARGRAGLRLCPTAGHSEDDIRGLGIAIQDVLKEISGR”, the “soluble on expression in E. coli” value is reported as “not soluble”. In the case of “MGSDKIHHHHHHMEHLPEQYRQLFPTLQTHTMLASCSQSALAEPVSRAIQDYYDSLLYKGTNWKEAIEKTEFARNEFAKLIGAEPDEVAIVPSVSDALVSVASSLTAFGKKHVVYTDMDFPAVPHVWQAHSDYTVSVIPSIDGVLPLEQYETHISDETVLTCVPHVHYRDGYVQDIKAIAEISQRKGSLLFVDAYQSAGHIPIDVKEWGVDMLAAGTRKYLLGIPGVAFLYVRKELADALKPKASAWFGRESGFDGAYAKVARRFQTGTPAFISVYAAAAALSLLNHIGVSHIRDHVKTICADAVQYAAEKGLQLAAAQGGIQPGMVAIRDERASETAGLLKKKKVICAPRENVIRLAPHFYNTKEEMRHAIDEIAAKTIHK”, the “soluble on expression in E. coli” value is reported as “not soluble”. In the case of “MGSDKIHHHHHHMEIGIAASVSELDGVQWDALSDGSPLLSHAFLSALEHSGSVGEGTGWQPMPLTVRRDGKLIGAVPLYLKHHSYGEYVFDWSWAGAYTQHGGEYYPKLVAAVPFTPITGSRLLSHDPMLQAHMAEVLRDTVQRLQLSSAHVLFPDEQSAEVLSGQGWLRRQGVQFRWHNQGFASFDEFLMTLTHDKRKKIRQERRKVDAAGVICRRLLGAEIGEREWDFFYKCYVNTYLEHRSSPYLTQAFFHELGERLPGNVMLVLAERDGRRIGAALNLYDTDCLYGRYWGALAYVPNLHFELCYYQAQLFCIERGIRFFEGGAQGEHKLARGFVARETCSFHHIAHPDFEAAIRHFVSREAVGVSHYQQELDERAPYRKPG”, the “soluble on expression in E. coli” value is reported as “not soluble”. With “MGSDKIHHHHHHMEINGHEIQFKDNAVFLEENKILILADVHVGMEEFIRRNGVLFPLNEKKELLKRLKNLIVEFKPEKLVFLGDFLHHFQKVPYKVYETIRELNSLLKNYEIIVIRGNHDIMLEYILKENTNFKILDYLLENKILMIHGDKKFDIDFNFDLLIMGHEHPVLEINKQRFPSYLEIVQNDFKILVAPAFSNIASGVKINELESNFMSPYLKKVKKEDIFPIIIGEEVLKFPDLSKIEKFL” the “soluble on expression in E. coli” value was “not soluble”. For “MGSDKIHHHHHHMEINTEIAIAWMSARQGKVSYSMDYRDGPNSYDCSSSVYYALRSAGASSAGWAVNTEYMHDWLIKNGYELIAENVDWNAVRGDIAIWGMRGHSSGAGGHVVMFIDPENIIHCNWANNGITVNNYNQTAAASGWMYCYVYRLKSGASTQGKSLDTLVKETLAGNYGNGEARKAVLGNQYEAVMSVINGKTTTNQKTVDQLVQEVIAGKHGNGEARKKSLGSQYDAVQKRVTELLKKQPSEPFKAQEVNKPTETKTSQTELTGQATATKEEGDLSFNGTILKKAVLDKILGNCKKHDILPSYALTILHYEGLWGTSAVGKADNNWGGMTWTGQGNRPSGVTVTQGSARPSNEGGHYMHYASVDDFLTDWFYLLRAGGSYKVSGAKTFSEAIKGMFKVGGAVYDYAASGFDSYIVGASSRLKAIEAENGSLDKFDKATDIGDGSKDKIDITIEGIEVTINGITYELTKKPV”, the “soluble on expression in E. coli” value was “not soluble”. In the case of “MGSDKIHHHHHHMEITIFGKGNMGQAIGHNFEIAGHEVTYYGSKDQATTLGEIVIMAVPYPALAALAKQYATQLKGKIVVDITNPLNFDTWDDLVVPADSSAAQELQQQLPDSQVLKAFNTTFAATLQSGQVNGKEPTTVLVAGNDDSAKQRFTRALADSPLEVKDAGKLKRARELEAMGFMQMTLAASEQIGWTGGFAVVK”, the “soluble on expression in E. coli” value is reported as “not soluble”. With “MGSDKIHHHHHHMEKIGELINHFRENKGMSQAELSEGILSKAQLSKFERDLTKISVDKFLALLERLHVTFTEFGNALAIQERLYEQAILEDITKAVINNNKDQAQLVKERAEQHLKKHHGKYNQLTLIMVKAMICDMEKGTLPKADTKVLADYLFSVDGWTHFELLLFGNTMSALSLVTVNQLARELAAQINEAWAIHQNFQLTINLLYNVVILNLSAKDLTTARLFLRVMKHSHVEDSMMAERYLIALADAFCDYCGEPTVEHENNVKRMIEIQKEIGSTNFFVAFNNQAKMFISETKISSNDSAGNV” the “soluble on expression in E. coli” value was “not soluble”. In the case of “MGSDKIHHHHHHMEKILTKQEIEALLAAVFEGKIEPDKELAKAEATVQSYDLFSSESKGNIPNLDIIYDSFIRYQRGTLSNRLGRIVEIKKVGAASFKFDDFLHTMPSPVAMAVYKADPLKGAALIAFDSTLVFTIVDCILGGTGSSVVPTVGNRMFTSIELRLVQKIVMDVLADLEKAWAPIYATKMGFLRMEMNPRLVNIVPPEYQVVTMEMEIQIEEIIGKMIFAVPLTTIDPVREKLKNGAQVDMMAIDPQWSFRLSKELLEAPLDLSVEVGGAIISMDELLNLTPGDTIMLDTPCNSDLVVKVGGVSKFMSAPGLRHGNKAAQITTIIGKGREQ”, the “soluble on expression in E. coli” value is reported as “not soluble”. In the case of “MGSDKIHHHHHHMEKLLTIVVPAYNVEKYIKNCLDSFIDLSVLRSLEILIVDDGSTDSTASLAHTYEQKYPYSFKVLSKENGGHGSTINYAIPRATGKYFKVVDGDDWLDKSLLPQFVQLLKHTHSDVISNDFNLVDDKTKKVTKRRKAVSNSYHYNREWGFAEAVMDPLITIHSMTIRTDVLQKNDIRVDEHCFYEDQEYILYPIPYCTSITFSPLPLYQYRLGRSGQSVDIKMMIKRHDQHLKVLDALFEYNNVHGNLQTYKKQYLERGIAEAVDDEYQIFLAKGNDTRNVEQMKKFDEMLREEHPGVYQACSRKSVWMLRKTGFKIFPMAAWVYSRLRGN”, the “soluble on expression in E. coli” value is reported as “not soluble”. In the case of “MGSDKIHHHHHHMEKMLYTAASGAVRILEAQSIRANNLANAETAGFKADLERVNAVPLVAQGNSLNTRVMAQTESSGFSQQSGVINPTGRSLDLAIRDRGLFSVAVDGAEAYTRSGAIETNAEGQLTIDGRPVLGIDGPIALPEYKDVFVGEDGTVSVLPAEGGIIEEVGRLKLVNPDFALMQKGQDGLLYRRDGQAVPQDEGVLVDSGFLESSNVQAVSELIASMDLSRQFEIQVKLMKSAEKLAEAGNRLLGNV”, the “soluble on expression in E. coli” value is reported as “not soluble”. With “MGSDKIHHHHHHMEKRQSIKDIEANGDVRGLFLLGAATLNQARNGPFWRLELRDATGTMEAKIWSPQSQAYPDLAPGQIVDLEGRSGTYRDRVEVTVERLRTLGEAEQASLDISQFLPASERPAAEMLEELERLCREVFTHAPWRKFVLGVLRDDDVRPRLLVAPAAKAVHHAFVGGLVEHILSVTRLCLHLAEHYPELDRQALVAGAIFHDIGKVWELTGGLANDYSDEGRLLGHIHIGLERIEPHLRKSGLEPELVMHFKHLILSHHGELEYGSPKRPKTAEAMVLHYADNIDAKMAQMRGLFANMGEGETGWSPYQNTLQRFLYRPARTPEPVATTRRRRGTPEVEQCSLLSKA” the “soluble on expression in E. coli” value was “not soluble”. In the case of “MGSDKIHHHHHHMELNLQTAELALREASESNPGAWADHSRFVAEACKNIASHCKDLSSEQAYIFGLLHDIGRYAGVSSERHLIDGYRYCMERGWEKAAQICISHAFMIQDIATSIGVFDVSDEDYLFMKEFVANAVYDDYDRLVQLCDALAMPSGFCLLEKRFVDVTMRYGVHPATIDRWKKILEIKEQFENQIGCSIYSLLPGIVENSFR”, the “soluble on expression in E. coli” value is reported as “not soluble”. With “MGSDKIHHHHHHMELQDKYIRFDWAVKRLLRHKANFGVLEGFLTVLIGDEIHIVEILESEGNQQTENDKFNRVDIKALNSKNEIVIIEIQNTRELYYLERILYGVAKAITEHISLGETYYKVKKIYSISILYFDIGHGTDYLYHGQNIFKGVHTGDFLQVSTREKDAIVPRMPSEIYPEYFLIRVNEFNKVAVTPLEEWIEYLKTGIIRPDTTAPGLGEAREKLKYYSMTPQERHAYDEHLSALMIQNDVLDSAKLEGKIEGKIEGKIEGRLEGRAEGREEGREEGIKEGVLRNARRMKEKGFSTEDIMEITGLTFEEVSQL” the “soluble on expression in E. coli” value was “not soluble”. With “MGSDKIHHHHHHMELVDKDLRSIQETRNLIRKAKEAQQVLATFSQKQIDAIVQAVSEATFNQREKLAKMANEETGFGIYEDKIIKNAFASKVVYDEMKDKATVGVIHDDAAKKVTEIAVPVGVIAGLIPSTNPTSTVIYKALISLKAANSIVFSPHPNALKSIIETVEIIQKAAIAAGAPEGCVSVIKTPTMQATSELMKNKETNLILATGGNAMVKAAYSSGTPAIGVGPGNGPAYIERSANVPHAVKQIMDSKTFDNGTICASEQSIIVETVNREAVKEELIKQGAYFLSPAEADKLAKFILRPNGTMNPQIVGRSVQHIASLVGLSIPKDRRLIVAEETHVGLKYPFSREKLAPIIAFYTVENWEAACALSIEILKGEGAGHTMGIHTENKEVIREFGLRKPVSRLLVNTSGTLGGIGASTNLVPALTLGCGAVGGSSTSDNIGVENLFNLRRVAYGVRDLEEIRQEFGQTSTTSVATSCETTNQEELVNAVVAQVLARLN” the “soluble on expression in E. coli” value was “not soluble”.
